Experiments:
Type in all cases: physicochemical
[1] = Chemical stability of insulin: level of covalent insulin dimer; conditions: for percentage of covalent insulin dimer: stored at −4° C.
Procedure: (§1) An aliquot of 0.1 g bovine insulin was dissolved in 20 ml HCl (pH=2), the solution was then titrated by 0.1 N NaOH to pH 7.4. The feed solution was then atomized using an ISCO pump by spray freezing into liquid nitrogen. The nozzle used was polyetheretherketone tubing with a diameter of 63.5 μm. The flow rate was 14 ml/min at 4000 psi. The frozen particles were collected and dried in a tray lyophilizer. The resulting particles were highly porous. […] The SFL process decreased the level of covalent insulin dimer (Table 2). The mean particle size diameter as determined by time-of-flight measurement was 5.06 microns. SEM photographs reveal that the particle is an aggregate composed of small domains of insulin.
(§2) The SFL insulin powder was prepared according to the procedure outlined in Example 1 with same formulation. The SFL insulin powder was stored at −4° C. The samples were taken out at 6, 12 and 24 weeks.

[2] = Chemical stability of insulin: level of A-21 desamido insulin; conditions: stored at −4° C.
Procedure: as §1, §2

[3] = Particle size of powders (time-of-flight, AERO-[…])
Procedure: An aliquot of 0.1 g bovine insulin was dissolved in 20 ml HCl (pH=2), the solution was then titrated by 0.1 N NaOH to pH 7.4. The feed solution was then atomized using an ISCO pump by spray freezing into liquid nitrogen. The nozzle used was polyetheretherketone tubing with a diameter of 63.5 μm. The flow rate was 14 ml/min at 4000 psi. The frozen particles were collected and dried in a tray lyophilizer.
The span index is used to described the polydispersity in a given particle size distribution and is defined as (D90-D10)/D50, where D10, D50, and D90 are the respective particle size at 10, 50, 90 percent cumulative percent undersize.

[4] = Contact angle of powder compacts against purified water (wettability); conditions: compacts of powders
Text: The two solutions were mixed and allowed to equilibrate to generate a water-soluble inclusion complex between danazol and HPβCD. The solution was then processed by SFL and freeze-dried in a tray lyophilizer. The solution was atomized directly into liquid nitrogen through an insulated polyetheretherketone (PEEK) nozzle with a 63.5 μm orifice at 5000 psi constant pressure supplied by an ISCO syringe pump. The atomized frozen powder was then collected by sieve filtration and freeze-dried. […] Measurement of the contact angle of compacts of the various samples investigated allowed for the determination of the wettability of the powders. […] A lower contact angle coincided with enhanced wettability of the powder in aqueous dissolution media. […] The two solutions were mixed to form a one-phase cosolvent solution. The solution was then processed by SFL and freeze-dried and fluidized in an atmospheric freeze-drying (ATMFD) chamber. […] The atomized frozen powder was then collected by sieve filtration and freeze-dried using a cryogenic atmospheric (ATMFD) fluidized bed apparatus. […] The microparticles are porous and have a high surface area. […] Measurement of the contact angle of compacts of the various samples investigated allowed for the determination of the wettability of the powders. […] A lower contact angle coincided with a better wettability of the powder in aqueous dissolution media. […]

[5] = Dissolution of drug from powders in dissolution media (FeSSIF); conditions: 60 minutes
Text: This media is used to simulate gastrointestinal conditions. FeSSIF is the dissolution media that the powders produced in the following examples are dispersed into to quantitate the amount of drug dissolved as a function of time.

[6] = BET specific surface area of powders

## bovine insulin [Bulk insulin]
[1]; 12 weeks
  percentage of covalent insulin dimer: 1.18 percentage
[1]; 24 weeks
  percentage of covalent insulin dimer: 1.15 percentage
[1]; Example 1, after SFL and lyophilization vs bulk
  Covalent Insulin Dimer (percent): 0.25%
[1]; Initial
  percentage of covalent insulin dimer: 0.5 percentage
[2]; 12 weeks
  percentage of A-21 desamido: 2.61 percentage
[2]; 24 weeks
  percentage of A-21 desamido: 2.72 percentage
[2]; Initial
  percentage of A-21 desamido: 2.46 percentage
[3]; time-of-flight
  Mean Particle Size: 14.24 μm

## C#C[C@]1(O)CC[C@H]2[C@@H]3CCC4=Cc5oncc5C[C@]4(C)[C@H]3CC[C@@]21C [SFL Danazol Alone, danazol]
[4]
  Average Contact Angle ± S.D. against purified water: 64.3 ± 1.1 °
[4]; listed as danazol alone
  Average Contact Angle ± S.D. against purified water: 64.3 °

## C#C[C@]1(O)CC[C@H]2[C@@H]3CCC4=Cc5oncc5C[C@]4(C)[C@H]3CC[C@@]21C [Danazol]
[5]
  amount of danazol dissolved: 21%
[6]
  BET surface area: 0.52 m^2/g

## NC(=O)N1c2ccccc2C=Cc2ccccc21 [CBZ, carbamazepine]
[3]
  Span Index (D90-D10)/D50: 2.94
[3]; time-of-flight, 10 percent cumulative undersize
  D10: 15.56 μm
[3]; time-of-flight, 50 percent cumulative undersize
  D50: 39.70 μm
[3]; time-of-flight, 90 percent cumulative undersize
  D90: 132.33 μm

Source: US6862890B2, “Process for production of nanoparticles and microparticles by spray freezing into liquid” (Board of Regents, University of Texas System, priority 2001, dated 2005)
